Paper PMC7589338, “The strawberry transcription factor FaRAV1 positively regulates anthocyanin accumulation by activation of FaMYB10 and anthocyanin pathway genes”

Target: T1, FaRAV1 (Fragaria × ananassa, UniProt A0A3Q8TB28 1-301)
T1 sequence: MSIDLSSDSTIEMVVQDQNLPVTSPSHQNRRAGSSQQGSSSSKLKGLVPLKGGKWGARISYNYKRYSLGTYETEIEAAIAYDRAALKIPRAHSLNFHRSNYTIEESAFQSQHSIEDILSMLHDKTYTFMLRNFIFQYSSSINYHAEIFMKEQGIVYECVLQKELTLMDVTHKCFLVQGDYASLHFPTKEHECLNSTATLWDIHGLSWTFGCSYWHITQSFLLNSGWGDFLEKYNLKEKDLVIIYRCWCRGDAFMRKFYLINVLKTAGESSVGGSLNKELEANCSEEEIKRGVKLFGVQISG
Assay: EMSA; 8 nM biotinylated probe; LightShift Chemiluminescent EMSA kit (Thermo), per manufacturer and Ge et al. 2017; 8 nM biotin probe; binding buffer, pH and temperature not stated
Settings: protein: recombinant; tags: His (pET-32a; described as N-terminal FaRAV1-His fusion); label: 3'-biotin; blunt

B1: FaMYB10 promoter mutant probe (dsDNA)
DNA 1: AGGGTGGGGACTCGACAGTTTTTAGCTAACTTCCACATGCAATGGATCGAAAT
DNA 2: ATTTCGATCCATTGCATGTGGAAGTTAGCTAAAAACTGTCGAGTCCCCACCCT
Q: Does B1 bind?
A: no binding
